The values below come from patent publication US20160280798A1, “ALK ANTIBODIES, CONJUGATES, AND CHIMERIC ANTIGEN RECEPTORS, AND THEIR USE” (The United States of America, as Represented by the …, priority 2013, published 2016).

Experiment [1] has as its target T1, extracellular domain of ALK (Homo sapiens, UniProt Q9UM73).
T1 construct: monoclonal antibodies (mAb) against the extracellular domain of ALK
The following applies: cited from earlier work.

Experiment [2] has as its system ALK. The following applies: cited from earlier work.
Target sequence in this assay (Q9UM73 19-1620): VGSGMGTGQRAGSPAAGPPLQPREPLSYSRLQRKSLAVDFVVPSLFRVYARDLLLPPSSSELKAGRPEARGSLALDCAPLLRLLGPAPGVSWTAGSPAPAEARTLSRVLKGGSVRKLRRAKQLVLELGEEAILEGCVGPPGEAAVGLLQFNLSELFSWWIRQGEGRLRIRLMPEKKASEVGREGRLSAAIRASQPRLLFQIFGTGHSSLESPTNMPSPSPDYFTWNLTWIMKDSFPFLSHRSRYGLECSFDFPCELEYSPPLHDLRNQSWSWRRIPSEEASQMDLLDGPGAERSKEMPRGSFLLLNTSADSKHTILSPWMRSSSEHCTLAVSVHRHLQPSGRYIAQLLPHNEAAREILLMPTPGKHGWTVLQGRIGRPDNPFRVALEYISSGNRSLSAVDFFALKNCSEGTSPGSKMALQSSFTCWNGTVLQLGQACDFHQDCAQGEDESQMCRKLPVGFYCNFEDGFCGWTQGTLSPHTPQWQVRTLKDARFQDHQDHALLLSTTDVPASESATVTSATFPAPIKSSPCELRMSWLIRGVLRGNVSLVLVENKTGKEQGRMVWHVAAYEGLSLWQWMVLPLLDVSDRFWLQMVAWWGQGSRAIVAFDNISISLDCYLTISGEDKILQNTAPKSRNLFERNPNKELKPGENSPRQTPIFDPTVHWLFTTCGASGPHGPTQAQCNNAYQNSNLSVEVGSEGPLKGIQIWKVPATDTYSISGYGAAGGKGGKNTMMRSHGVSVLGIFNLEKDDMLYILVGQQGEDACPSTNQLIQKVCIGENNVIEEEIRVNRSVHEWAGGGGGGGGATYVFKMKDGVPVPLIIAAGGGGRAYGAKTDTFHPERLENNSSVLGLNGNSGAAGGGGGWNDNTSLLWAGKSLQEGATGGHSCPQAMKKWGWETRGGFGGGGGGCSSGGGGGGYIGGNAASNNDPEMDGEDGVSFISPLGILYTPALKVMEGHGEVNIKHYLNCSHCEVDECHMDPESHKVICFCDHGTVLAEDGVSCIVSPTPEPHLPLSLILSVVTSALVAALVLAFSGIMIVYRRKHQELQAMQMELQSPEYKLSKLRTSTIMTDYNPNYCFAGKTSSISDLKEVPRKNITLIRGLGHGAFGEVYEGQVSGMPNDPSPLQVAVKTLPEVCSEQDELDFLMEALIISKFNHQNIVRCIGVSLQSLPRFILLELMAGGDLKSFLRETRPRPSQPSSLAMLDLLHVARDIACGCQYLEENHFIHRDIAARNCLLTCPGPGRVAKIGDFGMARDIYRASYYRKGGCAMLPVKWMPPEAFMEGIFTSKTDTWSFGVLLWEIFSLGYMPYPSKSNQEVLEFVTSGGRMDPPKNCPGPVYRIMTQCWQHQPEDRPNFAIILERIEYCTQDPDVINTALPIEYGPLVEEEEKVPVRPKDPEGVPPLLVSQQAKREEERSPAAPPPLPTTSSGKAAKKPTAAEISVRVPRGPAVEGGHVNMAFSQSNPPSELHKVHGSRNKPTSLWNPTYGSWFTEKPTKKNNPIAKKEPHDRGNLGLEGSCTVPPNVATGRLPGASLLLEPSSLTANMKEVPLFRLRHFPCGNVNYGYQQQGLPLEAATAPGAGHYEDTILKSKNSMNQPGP
Experiment [3] deals with T2, human anaplastic lymphoma kinase (ALK) protein (human, UniProt Q9UM73 19-1620).
T2 construct: Endogenous ALK on tumor cell lines (SY5Y, LAN5, KCNR, IMR32, Rh18); also called CD246; cell surface ALK
Description: flow cytometry on tumor cell lines expressing ALK. As to the method: Cell lines used in these studies were: Sy5Y, LAN5, K562, Rh18, IMR32, KCNR. Cells were cultured in RPMI-1640 supplemented with 2 mM lgln, 10 mM HEPES, Pen/Strep, (Gibco, Life Technologies, Grand Island, N.Y.) and 10% FBS (Omega Scientific, Tarzana, Calif.). Anti-ALK antibodies were produced as described previously: ALK15A (IgG2b, weak agonist, membrane proximal binding), ALK48B (IgG2a, agonist, membrane proximal binding), ALK53A, ALK58A (binds to a membrane distal epitope) (Mazot et al., Oncogene, 30, 2017-2025, 2011; Moog-Lutz et al., J Biol. Chem., 280, 26039-26048, 2005). Staining for ALK expression on tumor lines was performed as follows: 2.5 μL primary antibody (1 mg/ml conc.) per 1 million cells was added to cells on ice in FACS buffer, FB, (PBS, 0.5% BSA, 0.02% NaN3) for 20 minutes, cells were washed twice, then stained with 5 μL FITC-F(ab′)2 Fragment Goat Anti-Mouse IgG+IgM (H+L) secondary antibody (Jackson ImmunoResearch, 1 mg/ml) for 20 minutes, washed, then analyzed by flow cytometry.
As reported previously, ALK MAbs 7, 48, 53, and 58 were able to detected ALK expression on tumor cell lines by flow cytometry. The ALK-specific MAb was used to define the expression of ALK on a series of neuroblastoma call lines, and a rhabdomyosarcoma cell line. FIG. 1 illustrates that the neuroblastoma cell lines SY5Y, LAN5, KCNR, IMR32, all express cell surface ALK, as does the rhabdomyosarcoma cell line Rh18. The differences in expression were quite varied with the SY5Y staining the brightest for ALK expression. This was true when the other MAbs specific for ALK were tested as well.
(In flow cytometry, cells or beads pass a laser one at a time.)

Experiment [4] deals with tumor cell lines (LAN5 SY5Y, Rh18, K562). Description: Cytokine release on co-culture of CAR T cells with tumor cell lines. Format: cell-based. The following applies: 24-hour co-culture with tumor cell lines; FIG. 6. As to the method:
FIGS. 6A-6C show a series of graphs illustrating cytokine activity of the disclosed CAR T Cells. PBMC were transduced with the indicated CAR constructs, and incubated with tumor targets (LAN5 SY5Y, Rh18, K562 as indicated in legend), and supernatants collected after 24 hours and tested for the presence of cytokine by a MesoScale mutli-analyte detection system. […] Controls include mock transduced cells, tumor only, and T cells without tumor target, as indicated.
T cell cytolytic function was assayed in standard 51Cr release assays as described elsewhere (Haso et al., (2013) Blood, 121, 1165-1174). Cytokine release was assayed by co-incubating 25,000 T cells with 25,000 tumor cell targets in cRPMI. At 24 hours culture media was collected and cytokines measured (Human TH1/TH2 multiplex, Meso Scale Discovery, Rockville, Md.).

Experiment [5] has as its system ALK. The following applies: flow cytometry; as reported previously; cited from earlier work.
Target sequence in this assay (Q9UM73 19-1038 limits assumed): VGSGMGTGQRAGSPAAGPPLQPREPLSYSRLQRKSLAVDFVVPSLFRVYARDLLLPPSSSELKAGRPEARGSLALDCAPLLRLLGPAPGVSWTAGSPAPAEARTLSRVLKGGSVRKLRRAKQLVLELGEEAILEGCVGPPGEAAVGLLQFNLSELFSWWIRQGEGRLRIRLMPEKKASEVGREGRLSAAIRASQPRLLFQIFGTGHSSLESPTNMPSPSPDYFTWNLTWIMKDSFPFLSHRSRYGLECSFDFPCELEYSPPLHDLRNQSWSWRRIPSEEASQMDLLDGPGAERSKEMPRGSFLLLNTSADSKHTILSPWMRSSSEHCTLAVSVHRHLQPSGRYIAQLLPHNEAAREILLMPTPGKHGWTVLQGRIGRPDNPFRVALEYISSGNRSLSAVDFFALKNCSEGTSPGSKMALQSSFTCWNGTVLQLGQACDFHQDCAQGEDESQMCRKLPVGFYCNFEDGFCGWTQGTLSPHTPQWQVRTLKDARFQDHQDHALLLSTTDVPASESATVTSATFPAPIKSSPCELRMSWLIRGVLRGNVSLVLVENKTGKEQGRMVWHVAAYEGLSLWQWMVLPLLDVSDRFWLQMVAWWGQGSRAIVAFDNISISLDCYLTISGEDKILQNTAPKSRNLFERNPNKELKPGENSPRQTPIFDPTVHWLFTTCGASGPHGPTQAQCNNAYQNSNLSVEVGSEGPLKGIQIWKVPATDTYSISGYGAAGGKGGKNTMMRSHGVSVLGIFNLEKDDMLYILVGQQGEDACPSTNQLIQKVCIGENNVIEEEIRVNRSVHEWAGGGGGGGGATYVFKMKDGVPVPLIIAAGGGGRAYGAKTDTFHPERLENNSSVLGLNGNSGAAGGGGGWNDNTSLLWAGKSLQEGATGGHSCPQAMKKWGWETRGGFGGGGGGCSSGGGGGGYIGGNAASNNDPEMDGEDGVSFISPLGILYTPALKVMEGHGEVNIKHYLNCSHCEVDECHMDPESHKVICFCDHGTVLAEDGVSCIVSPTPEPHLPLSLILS
The subject of experiment [6] is ALK+ human neuroblastoma cells (SY5Y cells). The experiment in a line: SY5Y neuroblastoma xenograft assay. It counts as in vivo. The following applies: transduced T cells given on day 13, no treatment on day 6. The method, then: NSG mice were injected s.c. on day 0 with 5×10^6 human neuroblastoma cells (SY5Y in vivo passaged and re-cultured as a new line, SY5Y.P1). On day 6, 5.1×10^6 ALK48-28z CAR(+)ve T cells were injected r.o. (34% positive/15 million total). CAR-treated mice were given a cocktail of (0.9 μg IL-7+6.6 μg M25 anti-IL7 mAb) i.p. every 2-3 days, for the time period indicated above. Survival statistics were calculated using Log-rank (Mantel-Cox) analysis (Prism Software, Inc.). On day 13, 3.2×10^6 ALK48SH-trasnduced T cells were given. The experiment was ended on day 64 due to graft vs host disease-like symptoms, standardly encountered in the NSG model system.
NOD scid gamma (NSG) mice were inoculated with ALK+ human neuroblastoma cells (SY5Y cells). On day 6, the mice were treated with human T cells transduced to express the murine ALK specific ALK48-28z CAR (SEQ ID NO: 49, long form CAR with CH2CH3 spacer domain) or mock treated T cells. […] In a separate set of mice, on day 13 post inoculation (and without any treatment on day 6), the mice were treated with ALK48SH-28z (SEQ ID NO: 50, short form CAR without spacer domain) transduced T cells.
The mice also received biweekly injections of IL-7 complexed to anti-IL7 antibody to promote T cell persistence. […] The other two groups all died of tumor.

Where two headings read alike, the source gives them in different places.

T1 sequence (Q9UM73 19-1038 limits assumed): as above
T2 sequence (Q9UM73 19-1620 limits assumed): as the sequence (Q9UM73 19-1620) above

B1: ALK15A: anti-ALK monoclonal antibody, IgG2b; VH SEQ ID NO: 1, VL SEQ ID NO: 2 (antibody, V domains shown)
VH: DVKLQESGPGLVAPSQSLSITCTVSGFSLTSYAVSWVRQPPGKGLEWLGIIWSGGATNYNSALKSRLSISKDNSKSQVFLKMNGLQTDDTARYYCAREHYYGSSAMDYWGQGASITVSS
VL: GIVMTQSPLSLPVSLGDQASISCRSSQSIVHSYGNTYLFWYLQKPGQSPKLLIYRVSNRFSGVPDRFSGSGSGTNFTLKISRVEAEDMGVYYCFQGTHVPYTFGGGTKLEIK
modifications: Antibody variable domain sequence
As for B1, the “location of epitope on ALK” value in experiment [1] is on record as “membrane proximal binding”. In experiment [2], the “agonist activity on ALK” value was “weak agonist”.

B2: ALK48 monoclonal antibody (antibody, IgG2a, V domains shown)
VH: QVQLQQSGAELVKPGASVKISCKASGYAFSSYWMNWVKQRPGKGLEWIGQIYPGDGDTTYNGKFKGKATLTADKSSSTVYMQLNSLTSEDSAVYFCVRYYYGSSGYFDYWGQGTTLTVSS
VL: DVQMIQTPDSLAVSLGQRATISCRASESVDNYGISFMHWYQQKPGQSPKLLIYRASNLESGIPARFSGSGSRTDFTLTINPVETDDVATYYCQQNNKDPPTFGGGTKLEIK
notes: Murine hybridoma antibody; also called ALK48B; ALK MAb 48
Take B2: the binding result in experiment [3] is “binds”.

B3: ALK48: CAR construct, long format: SP-murine ALK48 scFv-CH2CH3 spacer; signaling domains not stated for the in vitro tests (antibody, V domains shown)
VH: B2 VH
VL: B2 VL
Regarding B3, in experiment [4], the IFN-gamma production entry is “Strong”, the IL-2 production entry was “lower levels” and the TNF-alpha production entry is “lower levels”.

B4: ALK48B: anti-ALK monoclonal antibody, IgG2a; VH SEQ ID NO: 3, VL SEQ ID NO: 4 (antibody, V domains shown)
VH: B2 VH
VL: B2 VL
modifications: Antibody variable domain sequence
Turning to B4, in experiment [1], the “form of ALK bound (220 kD / 140 kDa cleaved)” value is on record as “both” and the “location of epitope on ALK” value is recorded as “membrane proximal binding”. Further, the “location of epitope on ALK” value in experiment [1] (listed as clone 48) is reported as “closer to the cell surface membrane”. Also, in experiment [2], the “agonist activity on ALK” value is reported as “agonist” and the “phosphorylation of the receptor upon binding” value was “induce phosphorylation”. The “agonist activity on ALK” value in experiment [2] (listed as mAb 48) is listed as “activating”. In addition, the “detection of ALK expression on tumor cell lines” value (from here on “detection of ALK expression”) in experiment [5] is given as “able to detected ALK expression”.

B5: ALK58 monoclonal antibody (antibody, V domains shown)
VH: ALQLQQSGAELVRPGASVTLSCKASGYTFTDYEMHWVKQTPVHGLEWIGAIDPETGGTAYNQKFEGKAILTADKSSSTAYMELRSLTSEDSPVYYCARRRYYGSSSFDYWGQGTTLTVSS
VL: DVQMIQTPSSLSASLGDRVTISCRASQDIGNYLNWYQQKPDGTVKLLIYYTSRLHSGVPSRFSGSGSGTEYSLTISNLEQEDIATYFCQQGSALPPTFGGGTKLEIN
notes: Murine hybridoma antibody; also called ALK58A; ALK MAb 58
On to B5, for which the binding result in experiment [3] is listed as “binds”.

B6: ALK58A: anti-ALK monoclonal antibody; VH SEQ ID NO: 7, VL SEQ ID NO: 8 (antibody, V domains shown)
VH: B5 VH
VL: B5 VL
modifications: Antibody variable domain sequence
Take B6: in experiment [1], the “form of ALK bound (220 kD / 140 kDa cleaved)” value was “only the 220 KDa form” and the “location of epitope on ALK” value is “membrane distal epitope”. Besides, in experiment [1] (listed as clone 58), the “location of epitope on ALK” value is “more distal cleaved region”. Also, in experiment [2], the “agonist activity on ALK” value is given as “activating” and the “phosphorylation of the receptor upon binding” value was “induce phosphorylation”. Further, in experiment [5], the “detection of ALK expression” value is listed as “able to detected ALK expression”.

B7: ALK48SH-28z: CAR, SEQ ID NO: 50; murine ALK48 scFv, no spacer (short form), 28z (protein)
chain: LLVTSLLLCELPHPAFLLIPDTQVQLQQSGAELVKPGASVKISCKASGYAFSSYWMNWVKQRPGKGLEWIGQIYPGDGDTTYNGKFKGKATLTADKSSSTVYMQLNSLTSEDSAVYFCVRYYYGSSGYFDYWGQGTTLTVSSGGGGSGGGGSGGGGSDVQMIQTPDSLAVSLGQRATISCRASESVDNYGISFMHWYQQKPGQSPKLLIYRASNLESGIPARFSGSGSRTDFTLTINPVETDDVATYYCQQNNKDPPTFGGGTKLEIKRAAAIEVMYPPPYLDNEKSNGTIIHVKGKHLCPSPLFPGPSKPFWVLVVVGGVLACYSLLVTVAFIIFWVRSKRSRLLHSDYMNMTPRRPGPTRKHYQPYAPPRDFAAYRSRVKFSRSADAPAYQQGQNQLYNELNLGRREEYDVLDKRRGRDPEMGGKPRRKNPQEGLYNELQKDKMAEAYSEIGMKGERRRGKGHDGLYQGLSTATKDTYDALHMQALPPR
modifications: chimeric antigen receptor sequence
notes: murine ALK48 scFv, no spacer (short form), 28z
Turning to B7, in experiment [6], the effect on survival result is reported as “no effect on survival”.

B8: ALK53 monoclonal antibody (antibody, V domains shown)
VH: DVQLQESGPVLVKTGASVKMSCTASGYTFTDHFMDWVKQSHGKSLEWIGSLNPYSGGTSYNQKFKGKATLTVDKSSSTAYMELNSLTSVDSAVYYCARHNWGAYFDYWGQGTTLTVSS
VL: DIVMTQAAPSVPVTPGESVSISCRSSKSLLHSNGNTYLYWFLQRPGQSPQRLIYYMSNLASGVPDRFSGRGSGTDFTLRISRVEAEDVGVYYCMQGLEDPYTFGGGTKLEIK
notes: Murine hybridoma antibody; also called ALK53A; ALK MAb 53
Turning to B8, the binding result in experiment [3] is recorded as “binds”.

B9: ALK53A: anti-ALK monoclonal antibody; VH SEQ ID NO: 5, VL SEQ ID NO: 6 (antibody, V domains shown)
VH: B8 VH
VL: B8 VL
modifications: Antibody variable domain sequence
B9: in experiment [5], the “detection of ALK expression” value is listed as “able to detected ALK expression”.
